Laboratory results published in the Immune Epitope Database (IEDB).

Key:
HLA-B*15:01 = experiment: IEDB peptide-MHC binding, purified MHC/direct/fluorescence; filed as Kd, often an IC50 or EC50 that approximates it; ≥ and ≤ were set here for values at or beyond the usual limits of such assays
HLA-B*58:01 [1] = experiment: IEDB peptide-MHC binding, purified MHC/competitive/fluorescence; filed as Kd, often an IC50 or EC50 that approximates it; ≥ and ≤ were set here for values at or beyond the usual limits of such assays; conditions: source organism: Mycobacterium tuberculosis C
HLA-A*69:01 [2] = experiment: IEDB peptide-MHC binding, purified MHC/direct/fluorescence; filed as Kd, often an IC50 or EC50 that approximates it; ≥ and ≤ were set here for values at or beyond the usual limits of such assays
HLA-B*35:01 = experiment: as above
HLA-B*27:05 = experiment: as above
HLA-A*26:01 [3] = experiment: as above
HLA-A*03:01 [4] = experiment: as above
HLA-A*01:01 = experiment: as above
HLA-A*24:03 [5] = experiment: as above
HLA-B*40:01 = experiment: as above
HLA-A*30:01 = experiment: as above
HLA-A*02:01 [6] = experiment: as above
HLA-B*44:02 = experiment: as above
HLA-B*08:01 = experiment: as above
HLA-A*11:01 = experiment: as above
HLA-B*58:01 [7] = experiment: as above
HLA-A*23:01 = experiment: IEDB peptide-MHC binding, purified MHC/competitive/fluorescence; filed as Kd, often an IC50 or EC50 that approximates it; ≥ and ≤ were set here for values at or beyond the usual limits of such assays
HLA-B*07:02 = experiment: IEDB peptide-MHC binding, purified MHC/direct/fluorescence; filed as Kd, often an IC50 or EC50 that approximates it; ≥ and ≤ were set here for values at or beyond the usual limits of such assays
HLA-A*31:01 = experiment: as above
HLA-B*15:17 [8] = experiment: as above; conditions: source organism: Cryptosporidium parvum
HLA-B*57:01 [9] = experiment: as above; conditions: source organism: Cryptosporidium parvum
HLA-C*15:02 = experiment: as above; conditions: source organism: Cryptosporidium parvum
HLA-A*69:01 [10] = experiment: IEDB peptide-MHC binding, purified MHC/competitive/fluorescence; filed as Kd, often an IC50 or EC50 that approximates it; ≥ and ≤ were set here for values at or beyond the usual limits of such assays; conditions: source organism: Streptococcus pneumoniae TIGR4
HLA-B*51:01 = experiment: as above; conditions: source organism: Streptococcus pneumoniae TIGR4
HLA-B*15:17 [11] = experiment: as above; conditions: source organism: Streptococcus pneumoniae TIGR4
HLA-B*46:01 = experiment: as above; conditions: source organism: Streptococcus pneumoniae TIGR4
HLA-A*26:01 [12] = experiment: as above; conditions: source organism: Streptococcus pneumoniae TIGR4
HLA-B*57:01 [13] = experiment: as above; conditions: source organism: Streptococcus pneumoniae TIGR4
HLA-A*03:01 [14] = experiment: as above; conditions: source organism: Streptococcus pneumoniae TIGR4
HLA-B*18:01 = experiment: as above; conditions: source organism: Streptococcus pneumoniae TIGR4
HLA-A*24:03 [15] = experiment: as above; conditions: source organism: Streptococcus pneumoniae TIGR4
HLA-A*02:01 [16] = experiment: as above; conditions: source organism: Streptococcus pneumoniae TIGR4
HLA-B*27:03 = experiment: as above; conditions: source organism: Streptococcus pneumoniae TIGR4
HLA-A*29:02 = experiment: as above; conditions: source organism: Streptococcus pneumoniae TIGR4
HLA-A*68:02 = experiment: as above; conditions: source organism: Streptococcus pneumoniae TIGR4
[17] = source organism: Giardia lamblia ATCC 50803
[18] = source organism: Collimonas fungivorans
[19] = source organism: Vibrio vulnificus
[20] = source organism: Cryptosporidium parvum
[21] = source organism: Vibrio cholerae

Measured: Kd

RSFRIHILF
≥ 10 µM: HLA-B*15:01; source organism: Mycobacterium tuberculosis
4.4 µM: HLA-B*58:01 [1]

SYPPPPASF
0.00084 µM: HLA-A*24:03 [5]; [17]
≥ 10 µM: HLA-B*15:01; [17]
≥ 20 µM: HLA-A*69:01 [2]; [17] | HLA-B*27:05; [17] | HLA-A*26:01 [3]; [17] | HLA-A*03:01 [4]; [17] | HLA-A*01:01; [17] | HLA-B*40:01; [17] | HLA-A*02:01 [6]; [17] | HLA-B*44:02; [17] | HLA-B*08:01; [17] | HLA-A*11:01; [17] | HLA-B*58:01 [7]; [17]
≥ 44.4 µM: HLA-A*30:01; [17]
1.59 µM: HLA-B*35:01; [17]

IWQWIHHEK
0.178 µM: HLA-A*23:01; source organism: Salmonella enterica subsp. enterica serovar Typhi

AYSPFAFKK
0.00979 µM: HLA-A*30:01; [18]
2.4 µM: HLA-A*24:03 [5]; [18]
≥ 20 µM: HLA-A*69:01 [2]; [18] | HLA-B*15:01; [18] | HLA-B*27:05; [18] | HLA-A*26:01 [3]; [18] | HLA-A*01:01; [18] | HLA-B*07:02; [18] | HLA-B*40:01; [18] | HLA-A*02:01 [6]; [18] | HLA-B*08:01; [18] | HLA-B*58:01 [7]; [18]
0.168 µM: HLA-A*11:01; [18]
2.28 µM: HLA-A*03:01 [4]; [18]

QKDINTPGY
15.5 µM: HLA-A*02:01 [6]; [19]
9.37 µM: HLA-A*30:01; [19]
≥ 20 µM: HLA-A*69:01 [2]; [19] | HLA-B*27:05; [19] | HLA-A*26:01 [3]; [19] | HLA-A*03:01 [4]; [19] | HLA-A*31:01; [19] | HLA-A*01:01; [19] | HLA-B*07:02; [19] | HLA-B*40:01; [19] | HLA-B*44:02; [19] | HLA-B*08:01; [19] | HLA-A*11:01; [19] | HLA-B*58:01 [7]; [19]

ISCQIYNAL
0.0826 µM: HLA-B*15:17 [8]
0.169 µM: HLA-B*35:01; [20]
0.192 µM: HLA-B*40:01; [20]
0.385 µM: HLA-C*15:02
≥ 20 µM: HLA-A*69:01 [2]; [20] | HLA-B*27:05; [20] | HLA-A*26:01 [3]; [20] | HLA-B*57:01 [9] | HLA-A*03:01 [4]; [20] | HLA-A*31:01; [20] | HLA-A*01:01; [20] | HLA-B*07:02; [20] | HLA-A*02:01 [6]; [20] | HLA-B*44:02; [20] | HLA-B*08:01; [20] | HLA-A*11:01; [20]
0.27 µM: HLA-B*15:01; [20]

GEHWLGRIW
≥ 10 µM: HLA-B*35:01; [21]
13.1 µM: HLA-B*27:05; [21]
19.4 µM: HLA-B*58:01 [7]; [21]
≥ 20 µM: HLA-A*69:01 [2]; [21] | HLA-B*15:01; [21] | HLA-A*26:01 [3]; [21] | HLA-A*03:01 [4]; [21] | HLA-A*31:01; [21] | HLA-A*01:01; [21] | HLA-B*07:02; [21] | HLA-A*30:01; [21] | HLA-A*02:01 [6]; [21] | HLA-B*08:01; [21] | HLA-A*11:01; [21]
0.858 µM: HLA-B*40:01; [21]
3.83 µM: HLA-B*44:02; [21]

VPPTNSINK
15 µM: HLA-B*35:01; [20]
≥ 20 µM: HLA-A*69:01 [2]; [20] | HLA-B*27:05; [20] | HLA-A*26:01 [3]; [20] | HLA-A*03:01 [4]; [20] | HLA-A*31:01; [20] | HLA-A*01:01; [20] | HLA-A*24:03 [5]; [20] | HLA-B*40:01; [20] | HLA-A*02:01 [6]; [20] | HLA-B*44:02; [20] | HLA-B*08:01; [20] | HLA-A*11:01; [20] | HLA-B*58:01 [7]; [20]
≥ 10 µM: HLA-B*15:01; [20]

YQVEGATRV
0.0017 µM: HLA-A*02:01 [16]
≥ 20 µM: HLA-A*69:01 [10] | HLA-B*51:01 | HLA-A*23:01; source organism: Streptococcus pneumoniae TIGR4 | HLA-B*15:17 [11] | HLA-B*46:01 | HLA-A*26:01 [12] | HLA-B*57:01 [13] | HLA-A*03:01 [14] | HLA-B*18:01 | HLA-A*24:03 [15] | HLA-B*27:03 | HLA-A*29:02 | HLA-A*68:02
